Biological target: 重组PSMA蛋白片段 (human PSMA residues 307-750 with β2M and His tag, expressed in E. coli) (human, UniProt Q04609 307-750)
Experiment: indirect ELISA, PSMA protein coated at 100 μg/ml, antibody titrated from 2000 to 0.625 ng/mL; affinity constant from the antibody concentration at half of the plateau OD

Sequence of 重组PSMA蛋白片段 (human PSMA residues 307-750 with β2M and His tag, expressed in E. coli) (Q04609 307-750): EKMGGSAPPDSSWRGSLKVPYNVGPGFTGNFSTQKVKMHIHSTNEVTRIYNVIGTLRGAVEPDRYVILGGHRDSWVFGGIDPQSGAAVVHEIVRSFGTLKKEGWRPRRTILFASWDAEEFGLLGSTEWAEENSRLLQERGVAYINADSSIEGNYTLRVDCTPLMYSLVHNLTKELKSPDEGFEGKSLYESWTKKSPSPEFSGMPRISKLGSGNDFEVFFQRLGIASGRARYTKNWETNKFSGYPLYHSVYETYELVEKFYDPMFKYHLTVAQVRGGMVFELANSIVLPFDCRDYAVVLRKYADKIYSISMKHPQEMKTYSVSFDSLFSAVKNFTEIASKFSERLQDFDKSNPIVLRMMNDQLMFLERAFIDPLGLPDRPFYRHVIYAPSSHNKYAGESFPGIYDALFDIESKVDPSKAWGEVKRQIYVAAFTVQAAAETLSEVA

B1: 抗PSMA蛋白单克隆抗体(11D1E5E10) (antibody, V domains shown)
VH: QVQLQQSGPELARPGASVKMSCKASGYTFTSYTIHWVKQRPGQGLEWIGYISPSSGYTNYNQNFKDQATLTADISSSTAYMQLSSLTSEDSAVYYCARSGYRYDWYFDVWGAGTTVTVSS
VL: DIQMTQSPSSLSASLGGKVTITCKASQDINKYIAWYQHKPGKGPRLLIHYTSTLQPGIPSRFSGSGSGRDYSFSISNLEPEDIATYYCLQYDNLWTFGGGTKLEIK
notes: also called CGMCC NO.19683; PSMA单克隆抗体
  Ka: 4.96e+09 M⁻¹

Source: patent publication CN112480260A (FUZHOU MAIXIN BIOTECHNOLOGY DEV CO LTD, dated 2021)
